According to US11382907B2, “Methods and compositions for treating aging-associated impairments using CCR3-inhibitors” (Alkahest, Inc., priority 2017, dated 2022):

Key:
Format in all cases: in vivo
[1] = test system: two-month-old C57Bl/6 mice treated with rmCCL11; assay: Barnes maze test in young mice given recombinant mouse CCL11; settings: 2-month-old mice; rmCCL11 i.p.; Compound 1 30 mg/kg p.o. b.i.d.
Text: A modified Barnes maze was used to assess spatial working/episodic like learning and memory. The Barnes maze apparatus consists of a 122 cm diameter circular platform with 40 escape holes, each with a diameter of 5 cm placed along three rings of varying distances from the center of the platform. An escape box is attached to one of the holes and all holes are left uncovered. Bright lights and a fan are trained on the maze to provide adverse stimuli to encourage escape. Visual cues are placed on all four sides of the maze. Mice are given a series of 4 or 5 trials with inter-trial intervals of approximately 10 min, and the maximum duration of each trial is 90 or 120 sec. For each trial, mice are placed in the center of the maze. After 10 seconds, mice are allowed to explore, and the trial is ended if the mouse has found and entered an escape box before the end of the trial. Mice that cannot find the escape box are led to it and allowed to enter and given 30 sec to remain before being returned to its home cage. Training is done for 4 days. Data that is recorded and analyzed include velocity, escape latency, and distance moved.
(§1) Two-month-old C57Bl/6 mice were dosed with either vehicle control or Compound 1 by oral gavage twice daily for 18 days. During the last week of treatment, mice were subjected to behavior testing prior to perfusion on the last day of treatment. […]

[2] = test system: two-month-old C57Bl/6 mice treated with rmCCL11; assay: Y-maze test in young mice given recombinant mouse CCL11; settings: 2-month-old mice; rmCCL11 i.p.; Compound 1 30 mg/kg p.o. b.i.d.
Method: A large Y-maze test assesses short-term memory of the familiarity of a specific context. Mice are brought to the experimental room for at least 30 min of acclimation to the experimental room conditions (dim lighting) prior to testing. For the initial training trial, the mouse is placed at the end of one arm of a large Y-maze designated “start arm” (arm length: 15 inches). The third arm of the maze is blocked off, allowing the mouse to explore two of the three arms freely (“start arm” and “familiar arm”) for 5 min. Each arm contains spatial cues. One hour later, the mouse is placed back into the maze in the “start arm” and allowed to explore all three arms with the third arm unblocked (“novel arm”). Movements in and out of each arm are tracked using automated tracking software (CleverSys). Testing is performed under dim lighting, and the apparatus is cleaned with 70% ethanol between trials.
as §1, with “treatment. All mice received 5 consecutive days of BrdU injection at 150 mg/kg IP immediately prior to treatment start.” for “treatment.”

[3] = test system: two-month-old C57Bl/6 mice treated with rmCCL11; assay: Open Field test in young mice given recombinant mouse CCL11; settings: 2-month-old mice; rmCCL11 i.p.; Compound 1 30 mg/kg p.o. b.i.d., 2 weeks
Method: Open Field is used to evaluate general locomotor activity and exploratory behavior in a novel environment. Mice are brought to the experimental room for at least 30 min for acclimation to the experimental room conditions (dim lighting) prior to testing. The testing arena consists of a 50 cm×50 cm square arena. Mice are placed in the center of an arena and tracked for 15 minutes. Time spent in the peripheral and centers zones is analyzed, along with rearing behavior. 70% ethanol is used to clean all surfaces between trials.
[…] During the last week of treatment, mice were subjected to behavior testing prior to perfusion on the last day of treatment. All mice received 5 consecutive days of BrdU injection at 150 mg/kg IP immediately prior to treatment start. […]

B1: rmCCL11: Recombinant mouse CCL11 (eotaxin-1), injected i.p. to impair behaviour in young mice (protein, UniProt P48298 24-97, looked up)
Eotaxin: HPGSIPTSCCFIMTSKKIPNTLLKSYKRITNNRCTLKAIVFKTRLGKEICADPKKKWVQDATKHLDQKLQTPKP
In the case of B1, the “memory in the Barnes maze” value [1] is reported as “impaired memory in the Barnes maze”, the “memory in the Y-maze” value [2] is reported as “impaired memory in the Y-maze” and the “anxiety in the Open Field” value [3] is reported as “significantly worsened anxiety”.
